Laboratory results: US6833355 (HANSA MEDICAL, dated 2004)

B1: COOH-terminal fragment of NPM, in vitro translated and 35S-methionine-labelled (other)
chain: GSKVPQKKVKLAADEDDDDDDEEDDDEDDDDDDFDDEEAEEKAPVKKSIRDTPAKNAQKSNQNGKDSKPSSTPRSKGQESFKKQEKTPKTPKGPSSVEDIKAKMQASIEKGGSLPKVEAKFINYVKNCFRMTDQEAIQDLWQWRKSL
modifications: 35S-methionine label
notes: domain: COOH-terminal half; also called COOH-terminal peptide; COOH-terminal half of NPM
B2: protein H of Streptococcus pyogenes, COOH-terminally truncated fragment expressed by and purified from E. coli (305 amino acids) (other)
chain: EGAKIDWQEEYKKLDEDNAKLVEVVETTSLENEKLKSENEENKKNLDKLSKENQGKLEKLELDYLKKLDHEHKEHQKEQQEQEERQKNQEQLERKYQREVEKRYQEQLQKQQQLETEKQISEASRKSLSRDLEASRAAKKDLEAEHQKLEAEHQKLKEDKQISDASRQGLSRDLEASRAAKKELEANHQKLEAEHQKLKEDKQISDASRQGLSRDLEASRAAKKELEANHQKLEAEAKALKEQLAKQAEELAKLRAGKASDSQTPDTKPGNKAVPGKGQAPQAGTKPNQNKAPMKETKRQLPSTG
notes: 42-346 is the same stretch counted from the first Met of the entry; Depending on the assay, protein H was coupled to CNBr-Sepharose, labelled with 125I (Bolton-Hunter), biotinylated or unlabelled; also called recombinant protein H; soluble protein H

Legend:
[1] = biological target: B2; test: Affinity chromatography of the 35S-labelled in vitro translated peptide on protein H-Sepharose, then SDS-PAGE and autoradiography
[2] = biological target: actin from porcine heart (Sigma) (porcine, UniProt B6VNT8 3-377); test: SPR (BIACORE X), protein H over immobilised actin; mean ± SD of three experiments

B1: no binding [1].

With B2 the Ka [2] was 1.7e+06 M⁻¹, the Kd [2] was 600 nM and the koff [2] was 0.0015 s⁻¹. It also gave a kon [2] of 2500 M⁻¹ s⁻¹.
